US20040096899A1, “Immunoassay method for membrane-bound matrix metalloprotease” (priority 2000, published 2004)

B1: MMP-9: matrix metalloproteinase subjected to MT1-MMP sandwich EIA for cross reactivity (protein)
chain: APRQRQSTLVLFPGDLRTNLTDRQLAEEYLYRYGYTRVAEMRGESKSLGPALLLLQKQLSLPETGELDSATLKAMRTPRCGVPDLGRFQTFEGDLKWHHHNITYWIQNYSEDLPRAVIDDAFARAFALWSAVTPLTFTRVYSRDADIVIQFGVAEHGDGYPFDGKDGLLAHAFPPGPGIQGDAHFDDDELWSLGKGVVVPTRFGNADGAACHFPFIFEGRSYSACTTDGRSDGLPWCSTTANYDTDDRFGFCPSERLYTQDGNADGKPCQFPFIFQGQSYSACTTDGRSDGYRWCATTANYDRDKLFGFCPTRADSTVMGGNSAGELCVFPFTFLGKEYSTCTSEGRGDGRLWCATTSNFDSDKKWGFCPDQGYSLFLVAAHEFGHALGLDHSSVPEALMYPMYRFTEGPPLHKDDVNGIRHLYGPRPEPEPRPPTTTTPQPTAPPTVCPTGPPTVHPSERPTAGPTGPPSAGPTGPPTAGPSTATTVPLSPVDDACNVNIFDAIAEIGNQLYLFKDGKYWRFSEGRGSRPQGPFLIADKWPALPRKLDSVFEERLSKKLFFFSGRQVWVYTGASVLGPRRLDKLGLGADVAQVTGALRSGRGKMLLFSGRRLWRFDVKAQMVDPRSASEVDRMFPGVPLDTHDVFQYREKAYFCQDRFYWRVSSRSELNQVDQVGYVTYDILQCPED
B2: MMP-1: matrix metalloproteinase subjected to MT1-MMP sandwich EIA for cross reactivity (protein)
chain: FPATLETQEQDVDLVQKYLEKYYNLKNDGRQVEKRRNSGPVVEKLKQMQEFFGLKVTGKPDAETLKVMKQPRCGVPDVAQFVLTEGNPRWEQTHLTYRIENYTPDLPRADVDHAIEKAFQLWSNVTPLTFTKVSEGQADIMISFVRGDHRDNSPFDGPGGNLAHAFQPGPGIGGDAHFDEDERWTNNFREYNLHRVAAHELGHSLGLSHSTDIGALMYPSYTFSGDVQLAQDDIDGIQAIYGRSQNPVQPIGPQTPKACDSKLTFDAITTIRGEVMFFKDRFYMRTNPFYPEVELNFISVFWPQLPNGLEAAYEFADRDEVRFFKGNKYWAVQGQNVLHGYPKDIYSSFGFPRTVKHIDAALSEENTGKTYFFVANKYWRYDEYKRSMDPGYPKMIAHDFPGIGHKVDAVFMKDGFFYFFHGTRQYKFDPKTKRILTLQKANSWFNCRKN
B3: MMP-19: matrix metalloproteinase subjected to MT1-MMP sandwich EIA for cross reactivity (protein)
chain: RVLGLAEVAPVDYLSQYGYLQKPLEGSNNFKPEDITEALRAFQEASELPVSGQLDDATRARMRQPRCGLEDPFNQKTLKYLLLGRWRKKHLTFRILNLPSTLPPHTARAALRQAFQDWSNVAPLTFQEVQAGAADIRLSFHGRQSSYCSNTFDGPGRVLAHADIPELGSVHFDEDEFWTEGTYRGVNLRIIAAHEVGHALGLGHSRYSQALMAPVYEGYRPHFKLHPDDVAGIQALYGKKSPVIRDEEEEETELPTVPPVPTEPSPMPDPCSSELDAMMLGPRGKTYAFKGDYVWTVSDSGPGPLFRVSALWEGLPGNLDAAVYSPRTQWIHFFKGDKVWRYINFKMSPGFPKKLNRVEPNLDAALYWPLNQKVFLFKGSGYWQWDELARTDFSSYPKPIKGLFTGVPNQPSAAMSWQDGRVYFFKGKVYWRLNQQLRVEKGYPRNISHNWMHCRPRTIDTTPSGGNTTPSGTGITLDTTLSATETTFEY
B4: MMP-20: matrix metalloproteinase subjected to MT1-MMP sandwich EIA for cross reactivity (protein)
chain: APSLVAASPRTWRNNYRLAQAYLDKYYTNKEGHQIGEMVARGSNSMIRKIKELQAFFGLQVTGKLDQTTMNVIKKPRCGVPDVANYRLFPGEPKWKKNTLTYRISKYTPSMSSVEVDKAVEMALQAWSSAVPLSFVRINSGEADIMISFENGDHGDSYPFDGPRGTLAHAFAPGEGLGGDTHFDNAEKWTMGTNGFNLFTVAAHEFGHALGLAHSTDPSALMYPTYKYKNPYGFHLPKDDVKGIQALYGPRKVFLGKPTLPHAPHHKPSIPDLCDSSSSFDAVTMLGKELLLFKDRIFWRRQVHLRTGIRPSTITSSFPQLMSNVDAAYEVAERGTAYFFKGPHYWITRGFQMQGPPRTIYDFGFPRHVQQIDAAVYLREPQKTLFFVGDEYYSYDERKRKMEKDYPKNTEEEFSGVNGQIDAAVELNGYIYFFSGPKTYKYDTEKEDVVSVVKSSSWIGC
B5: MMP-2: matrix metalloproteinase subjected to MT1-MMP sandwich EIA for cross reactivity (protein)
chain: APSPIIKFPGDVAPKTDKELAVQYLNTFYGCPKESCNLFVLKDTLKKMQKFFGLPQTGDLDQNTIETMRKPRCGNPDVANYNFFPRKPKWDKNQITYRIIGYTPDLDPETVDDAFARAFQVWSDVTPLRFSRIHDGEADIMINFGRWEHGDGYPFDGKDGLLAHAFAPGTGVGGDSHFDDDELWTLGEGQVVRVKYGNADGEYCKFPFLFNGKEYNSCTDTGRSDGFLWCSTTYNFEKDGKYGFCPHEALFTMGGNAEGQPCKFPFRFQGTSYDSCTTEGRTDGYRWCGTTEDYDRDKKYGFCPETAMSTVGGNSEGAPCVFPFTFLGNKYESCTSAGRSDGKMWCATTANYDDDRKWGFCPDQGYSLFLVAAHEFGHAMGLEHSQDPGALMAPIYTYTKNFRLSQDDIKGIQELYGASPDIDLGTGPTPTLGPVTPEICKQDIVFDGIAQIRGEIFFFKDRFIWRTVTPRDKPMGPLLVATFWPELPEKIDAVYEAPQEEKAVFFAGNEYWIYSASTLERGYPKPLTSLGLPPDVQRVDAAFNWSKNKKTYIFAGDKFWRYNEVKKKMDPGFPKLIADAWNAIPDNLDAVVDLQGGGHSYFFKGAYYLKLENQSLKSVKFGSIKSDWLGC

These molecules were tested against T1, MT1-MMP sandwich EIA (solid-phase antibody 222-2D12, labeled antibody 222-1D8) (Homo sapiens, UniProt P50281) (assay: Specificity test: cross reactivity on MT1-MMP sandwich EIA). Details: concentration 1 μg/mL; blank 0.027.
T1 construct: 488 amino acid residues of Δ MT1-MMP (G^48 to G^53) which lacks the signal peptide and part of the propeptide region; made in house; host or cells: E. coli
Format: binding
Description: Monoclonal antibodies (e.g., 333-2D12 (IgG)) were dissolved in 0.1 M phosphate buffer, pH 7.0 to a concentration of 25 μg/mL. The monoclonal antibody solution was added to each well of a 96-well microwell (Maxisorp; Nunc-Immuno Module) at 100 μL per well and allowed to stand at 4° C. for 24 hrs. […] The solid-phase antibodies were preserved at 4° C.
Standard antigens or samples to be assayed were dispensed into a 96-well vinyl plate at 25 μL each. To each well was added a dilution buffer in aliquots of 100 μL, followed by mixing. An aliquot (100 μL) of the resultant mixture was taken out, dispensed into an antibody-solid phased plate from which a blocking solution was removed by washing. The plate was then allowed to stand at 4° C. for 16 hours.
[…] antibody 222-1D8 (Fab′-HRP) was diluted with a blocking solution to a concentration of 0.4 μg/mL. The reaction solution was removed from the antibody-solid phased plate where the primary reaction was completed. The plate was washed with a washing liquid three times and an aliquot (100 μL) of the labeled antibody solution was added to each well. The plate was allowed to stand at room temperature for 1 hour.
After completion of the reaction, the labeled antibody solution was removed. The plate was then washed with a washing liquid three times, and a TMB solution (CALBIOCHEM) was added to each well at 100 μL. The mixture was allowed to react at room temperature for 20 minute. The reaction was stopped with the addition of 2 N sulfuric acid at 100 μL per well. The reaction mixture was measured for A450 with a microplate reader (MPR-A4; Tosoh).
Each of MMP-1, -2, -3, -4, -7, -8, -9, -13, -19 and -20 was prepared to give a concentration of 1 μg/mL, and subjected to MT1-MMP sandwich EIA. A450 was measured. When MT1-MMP was subjected to sandwich EIA at 0.16 μg/mL, the absorbance was 2.206. However, when the above MMPs were subjected, their absorbances were only an extent of 0.024 to 0.071. Accordingly, it has been verified that MT1-MMP sandwich EIA is specifically reactive with MT1-MMP.

| Molecule | A450 |
| --- | --- |
| B1 | 0.039 |
| B2 | 0.025 |
| B3 | 0.027 |
| B4 | 0.071 |
| B5 | 0.024 |
